Source: the supplement of paper PMC10567573

B1: FAM189A2 (parent)
chain: GSEAAVIPLDLGCTQVTQDGDIPN

Variants of: B1
Experiment: protein stability index of a GFP-peptide fusion (GPS, HEK-293T) (PSI 1-6); higher = more stable
Details: c terminus: a fixed tail appended
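Note: lentivirally expressed fusions sorted by FACS into six bins by GFP to DsRed ratio, PSI derived from sequencing read proportions per bin multiplied by bin number.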

Protein stability index, by site and new letter:
D21: W 3.76 | Q 4.92 | T 4.97 | P 4.77 | G 5.27 | C 4.71 | N 4.77 | L 4.52 | M 4.05 | A 5.07 | I 4.45 | Y 4.46 | K 5.48 | E 5.03 | H 4.38 | F 3.95 | S 4.97 | V 4.94 | R 4.69
I22: R 5.22 | S 5.64 | C 5.67 | W 5.34 | T 5.58 | A 5.72 | H 5.37 | M 5.08 | Y 5.26 | F 5.15 | V 5.54 | N 5.25 | D 5.64 | Q 5.31 | P 5.37 | L 5.39 | E 5.53 | K 5.65 | G 5.26
N24: K 5.03 | F 4.53 | P 5.14 | C 5.25 | E 5.28 | G 5.53 | M 4.95 | D 5.42 | H 5.28 | I 4.51 | L 4.79 | A 5.27
P23: D 5.81 | G 5.44 | S 5.3 | A 5.3 | K 5.17 | T 5.5 | V 5.29 | Q 5.3 | L 5.25 | F 4.35 | Y 4.52 | R 4.89 | E 5.55 | H 4.85 | I 5.16 | M 5.22 | N 5.87 | W 4.07 | C 4.93
Q18: H 5.22 | T 5.02 | P 5.18 | Y 4.61 | F 4.26 | I 4.62 | R 5.09 | W 4.67 | N 4.68 | V 4.92 | M 4.83 | A 5.46 | K 5.17 | E 5.38 | C 5.27 | L 5.25 | D 5.63 | S 5.54 | G 5.49
I7: H 5.23 | L 4.86 | G 5.6 | V 5.23 | W 4.79 | N 5.66 | F 4.96 | D 5.93 | T 5.67 | P 5.47 | S 5.58 | R 4.98 | E 5.78 | Q 5.24 | M 5.24 | C 5.04 | Y 5.32 | K 5.23
T17: W 4.69 | M 5.14 | S 5.5 | P 5.44 | E 5.68 | R 5.18 | G 5 | I 4.75 | D 5.46 | Q 5.24 | C 5.19 | A 5.21 | H 5.17 | V 5.37 | Y 4.87 | K 5.4 | F 5 | L 4.88 | N 5.19
G20: W 4.73 | N 5.31 | S 5.32 | I 5.29 | L 5.04 | V 4.97 | R 4.89 | C 5.3 | M 4.83 | D 5.56 | A 5.24 | F 4.18 | H 5.53 | E 5.62 | Y 5.09 | P 4.97 | T 5.41 | K 5.28 | Q 4.75
G12: P 5.52 | N 5.09 | Y 5.05 | E 4.86 | F 4.76 | S 4.37 | H 4.87 | I 4.96 | A 5.5 | D 5.61 | T 5.38 | Q 5.44 | C 4.6 | R 4.87 | V 5.16 | K 5.2 | M 4.82 | L 4.93 | W 4.62
D19: A 5.36 | F 4.46 | K 5.19 | P 5.06 | H 4.91 | G 5.24 | C 4.4 | V 4.77 | Y 4.47 | L 4.78 | M 4.61 | R 4.57 | T 5.25 | S 4.62 | N 4.8 | E 5.34 | Q 5.12 | I 4.3 | W 4.37
P8: Q 4.22 | M 3.41 | D 4.97 | R 4.53 | F 2.34 | N 5.16 | A 4.68 | C 4.03 | E 4.85 | H 4.74 | Y 2.83 | T 4.42 | L 2.65 | G 5.18 | K 5 | V 2.54 | W 2 | S 4.46 | I 1.87
V16: S 4.88 | D 5.66 | H 5.22 | E 4.98 | P 5.52 | N 5.62 | I 5.26 | M 4.6 | T 5.53 | G 5.14 | C 5.31 | F 5.1 | L 5.06 | W 4.67 | R 5 | A 4.95 | K 5.09 | Y 5.05 | Q 4.61
L11: A 5.54 | H 5.75 | W 5.38 | Q 5.33 | I 5.11 | C 5.25 | E 5.02 | K 5.6 | N 5.24 | P 5.45 | V 5.65 | R 5.72 | S 5.54 | T 5.44 | M 5.31 | Y 5.7 | F 5.39 | G 5.6 | D 5.77
C13: N 5.61 | G 5.54 | L 5.46 | S 5.43 | H 5.63 | K 5.18 | M 4.93 | T 5.48 | Q 5.71 | W 4.36 | V 4.77 | P 5.67 | E 5.54 | Y 5.3 | F 5.04 | D 5.46 | R 5.33 | A 5.17 | I 5.73
Q15: E 5.77 | P 5.33 | I 4.72 | D 5.23 | Y 4.5 | H 5.51 | A 5.45 | R 4.17 | F 4.8 | G 5.46 | M 5.27 | V 5.12 | W 4.11 | C 5.31 | K 5.16 | L 4.12 | T 5.24 | N 5.75 | S 5.4
L9: I 5.15 | K 5.46 | A 4.91 | W 4.67 | C 5.5 | T 5.5 | H 5.47 | Y 5.31 | Q 5.69 | M 5.6 | F 4.92 | E 5.41 | P 5.46 | R 5.22 | D 5.48 | N 5.55 | G 5.85 | V 5.42 | S 5.7
D10: I 3.7 | T 5.34 | W 4.02 | G 5.29 | M 4.02 | F 3.9 | E 5.18 | R 5.07 | P 5.26 | H 5.26 | Q 4.92 | V 4.48 | A 5.39 | K 4.85 | Y 4.39 | N 5.14 | L 4.2 | C 4.38 | S 5.15
T14: L 5.17 | Y 5.09 | R 4.41 | C 4.97 | N 5.31 | A 5.29 | S 5.27 | G 5.17 | Q 5.57 | W 4.16 | I 4.99 | E 5.51 | M 4.86 | D 5.25 | V 5.31 | H 4.91 | F 3.97 | K 5.46 | P 5.49
